# Key:
# Assay in all cases: cell_activity
# [1] = system: B2M right 16 bp TAL-ssSPB (13 bp spacing) (synthetic construct); settings: paired with left 14 bp; replicate 7.18
# [2] = system: PBx (excision-only piggyBac transposase) (synthetic construct); settings: HEK293T, LINE1 integration 0
# [3] = system: B2M right 17 bp TAL-ssSPB (13 bp spacing) (synthetic construct); settings: paired with left 14 bp; replicate 4.52
# [4] = system: LINE1 R2.2 TAL-ssSPB K500R K500R (synthetic construct); settings: excision 33.92
# [5] = system: LINE1 R2.2 TAL-ssSPB S301A S301A (synthetic construct); settings: excision 39.72
# [6] = system: TAL-ssSPB off-target (not specific for LINE1) (synthetic construct); settings: off-target control; excision 34.56
# [7] = system: LINE1 R2.2 TAL-ssSPB M226F M226F (synthetic construct); settings: excision 45.14
# [8] = system: B2M left 13 bp TAL-ssSPB (synthetic construct); settings: paired with right 12 bp; replicate 8.38
# [9] = system: B2M right 12 bp TAL-ssSPB (synthetic construct); settings: paired with left 14 bp; replicate 7.46
# [10] = system: B2M right 18 bp TAL-ssSPB (synthetic construct); settings: paired with left 14 bp; replicate 7.49
# [11] = system: B2M right 20 bp TAL-ssSPB (synthetic construct); settings: paired with left 14 bp; replicate 5.61
# [12] = system: B2M right 11 bp TAL-ssSPB (synthetic construct); settings: paired with left 14 bp; replicate 8.87
# [13] = system: B2M right 17 bp TAL-ssSPB (14 bp spacing) (synthetic construct); settings: paired with left 14 bp; replicate 5.14
# [14] = system: B2M left 14 bp TAL-ssSPB (synthetic construct); settings: paired with right 11 bp; replicate 8.87
# [15] = system: B2M right 16 bp TAL-ssSPB (14 bp spacing) (synthetic construct); settings: paired with left 14 bp; replicate 7.76
# [16] = system: B2M right 10 bp TAL-ssSPB (synthetic construct); settings: paired with left 9 bp; replicate 4.54
# [17] = system: B2M right 19 bp TAL-ssSPB (synthetic construct); settings: paired with left 14 bp; replicate 6.05
# [18] = system: B2M right 9 bp TAL-ssSPB (synthetic construct); settings: paired with left 10 bp; replicate 5.72
# [19] = system: B2M left 10 bp TAL-ssSPB (synthetic construct); settings: paired with right 12 bp; replicate 5.48
# [20] = system: B2M left 9 bp TAL-ssSPB (synthetic construct); settings: paired with right 10 bp; replicate 4.54
# [21] = system: B2M right 15 bp TAL-ssSPB (synthetic construct); settings: paired with left 14 bp; replicate 4.79
sequence,measurement,setting,value
"TGCATCTGAGCTTCTAA (double strand) [B2M right 16 bp target, 13 bp spacing]",activity (% B2M alleles edited),[1],6
CCCTAGAAAGATAATCATGCGTAAAATTGACGCATG (double strand) [Symmetrical ITR 1bpSNP],activity (% GFP positive cells),[2],91.3
"TTGCATCTGAGCTTCTAA (double strand) [B2M right 17 bp target, 13 bp spacing]",activity (% B2M alleles edited),[3],5.66
CCCTAGAAAGATAGTCTGCGTAAAATTGACGCATG (double strand) [Symmetrical ITR 0 bp],activity (% GFP positive cells),[2],91
TTGTCTCTTTT (double strand) [LINE1 R2.2 right target],activity (% mScarlet positive cells),[4],19.1
same,activity (% mScarlet positive cells),[5],20.2
same,activity (% mScarlet positive cells),[6],0.29
same,activity (% mScarlet positive cells),[7],21.6
TGAATCTGTGCTCT (double strand) [B2M left 13 bp target],activity (% B2M alleles edited),[8],6.55
TCTGAGCTTCTAA (double strand) [B2M right 12 bp target],activity (% B2M alleles edited),[9],6.8
TTTGCATCTGAGCTTCTAA (double strand) [B2M right 18 bp target],activity (% B2M alleles edited),[10],5.76
TCTTTGCATCTGAGCTTCTAA (double strand) [B2M right 20 bp target],activity (% B2M alleles edited),[11],4.65
TCTGAGCTTCTA (double strand) [B2M right 11 bp target],activity (% B2M alleles edited),[12],7.63
"TTTGCATCTGAGCTTCTA (double strand) [B2M right 17 bp target, 14 bp spacing]",activity (% B2M alleles edited),[13],4.96
TGAATCTGTGCTCTG (double strand) [B2M left 14 bp target],activity (% B2M alleles edited),[14],7.63
CCCTAGAAAGATAGTCTGCGTAAAATTGACGCATG / CCCTAGAAAGATAATCATATTGTGACGTACGTTAAAGATAATCATGCGTAAAATTGACGCATG [WT transposon ITRs (35 bp LE / 63 bp RE)],activity (% GFP positive cells),[2],98.8
"TTGCATCTGAGCTTCTA (double strand) [B2M right 16 bp target, 14 bp spacing]",activity (% B2M alleles edited),[15],6.39
TGAGCTTCTAA (double strand) [B2M right 10 bp target],activity (% B2M alleles edited),[16],5.38
TCTTTGCATCTGAGCTTCTA (double strand) [B2M right 19 bp target],activity (% B2M alleles edited),[17],5.45
TGAGCTTCTA (double strand) [B2M right 9 bp target],activity (% B2M alleles edited),[18],5.73
TCTGTGCTCTG (double strand) [B2M left 10 bp target],activity (% B2M alleles edited),[19],6.02
TCTGTGCTCT (double strand) [B2M left 9 bp target],activity (% B2M alleles edited),[20],5.38
TGCATCTGAGCTTCTA (double strand) [B2M right 15 bp target],activity (% B2M alleles edited),[21],6.25
